Tests used:
[1] = target: human CXCR4 (Chemokine receptor 4) (human) (UniProt P61073); assay: FACS on Hela cells (endogenous CXCR4), antibody at 10 ug/ml
[2] = target: human CXCR4 (Chemokine receptor 4) (human) (UniProt P61073); assay: FACS on U937 cells (endogenous CXCR4), antibody at 10 ug/ml
[3] = target: human CXCR4 (Chemokine receptor 4) (human) (UniProt P61073); assay: FACS on MDA-MB-231 cells (endogenous CXCR4), antibody at 10 ug/ml

UniProt P61073, sequence (P61073 whole entry): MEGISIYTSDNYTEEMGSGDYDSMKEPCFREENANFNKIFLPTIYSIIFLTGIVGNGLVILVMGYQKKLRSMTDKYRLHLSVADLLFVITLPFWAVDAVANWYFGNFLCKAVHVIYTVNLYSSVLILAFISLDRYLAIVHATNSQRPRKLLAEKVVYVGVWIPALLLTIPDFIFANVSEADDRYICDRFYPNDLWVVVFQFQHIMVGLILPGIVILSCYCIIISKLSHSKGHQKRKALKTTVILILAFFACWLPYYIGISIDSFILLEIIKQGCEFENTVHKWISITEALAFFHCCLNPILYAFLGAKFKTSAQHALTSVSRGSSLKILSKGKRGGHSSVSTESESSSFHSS

MFI [1]: 633 MFI | MFI [2]: 246 MFI | MFI [3]: 59 MFI
B1: anti-CXCR4 I-3859 monoclonal antibody (Mab) (antibody, V domains shown)
VH: QVQLKESGPGLVAPSQSLSITCTVSGFSLTDYGVYWVRQPPGKGLEWLGMIWGDGTTDYNSALKSRLSISKDNSKSQVFLKMNTLQTDDTARYYCARGRQFGFDYWGQGTTLTVSS
VL: DIVMSQSPSSLAVSAGEKVTMRCKSSQSLFNSRTRKNYLAWYQQKPGQSPKLLIFWASIRESGVPDRFTGSGSGTDFTLTISSVQAEDLAVYYCKQSYNLRTFGGGTKLEIK

— patent US20140170677A1
